The values that follow are results of earlier work, collected in publication PMC3310390.

For data set [1], the target named is Sir3 (Saccharomyces cerevisiae) (UniProt P06701).
The target is the same in data set [2]. This is another data set of the same source.
The target is the same in data set [3]. This is another data set of the same source.

Like-named read-outs stand apart in the source and are kept apart here.

For the substance Sir2 (from UniProt P06700), in data set [1], the Kd is 60 nM. For the substance Sir3 (from UniProt P06701), in data set [2], the equilibrium dissociation constant (Kd) is 2 nM. Sir2/Sir4 complex (from UniProt P06700): in data set [3], the Kd was 0.03 nM.

A word on the Kd: it is the equilibrium constant for the complex coming apart.
